B1: Norrin (Homo sapiens), Q00604 (parent)
chain: MRKHVLAASFSMLSLLVIMGDTDSKTDSSFIMDSDPRRCMRHHYVDSISHPLYKCSSKMVLLARCEGHCSQASRSEPLVSFSTVLKQPFRSSCHCCRPQTSKLKALRLRCSGGMRLTATYRYILSCHCEECNS
B2: Frizzled-4 (Homo sapiens), Q9ULV1 (parent)
chain: MAWRGAGPSVPGAPGGVGLSLGLLLQLLLLLGPARGFGDEEERRCDPIRISMCQNLGYNVTKMPNLVGHELQTDAELQLTTFTPLIQYGCSSQLQFFLCSVYVPMCTEKINIPIGPCGGMCLSVKRRCEPVLKEFGFAWPESLNCSKFPPQNDHNHMCMEGPGDEEVPLPHKTPIQPGEECHSVGTNSDQYIWVKRSLNCVLKCGYDAGLYSRSAKEFTDIWMAVWASLCFISTAFTVLTFLIDSSRFSYPERPIIFLSMCYNIYSIAYIVRLTVGRERISCDFEEAAEPVLIQEGLKNTGCAIIFLLMYFFGMASSIWWVILTLTWFLAAGLKWGHEAIEMHSSYFHIAAWAIPAVKTIVILIMRLVDADELTGLCYVGNQNLDALTGFVVAPLFTYLVIGTLFIAAGLVALFKIRSNLQKDGTKTDKLERLMVKIGVFSVLYTVPATCVIACYFYEISNWALFRYSADDSNMAVEMLKIFMSLLVGITSGMWIWSAKTLHTWQKCSNRLVNSGKVKREKRGNGWVKPGKGSETVV

Variants of: B1
Conditions: with fzd4_human FZD4, Q9ULV1

effect of a mutation on the interaction | Variant
decreasing interaction | K54D
decreasing interaction | R115L

Variants of: B2
Conditions: with ndp_human NDP, Q00604

effect of a mutation on the interaction | Variant
decreasing interaction | M105V
